# Where two headings read alike, the source gives them in different places.
# T1: human CEACAM5-his (ACRO CE5-H5226) (human, UniProt P06731 35-685)
# T1 construct: Bought protein; not shown: His tag
# T1 sequence (looked up): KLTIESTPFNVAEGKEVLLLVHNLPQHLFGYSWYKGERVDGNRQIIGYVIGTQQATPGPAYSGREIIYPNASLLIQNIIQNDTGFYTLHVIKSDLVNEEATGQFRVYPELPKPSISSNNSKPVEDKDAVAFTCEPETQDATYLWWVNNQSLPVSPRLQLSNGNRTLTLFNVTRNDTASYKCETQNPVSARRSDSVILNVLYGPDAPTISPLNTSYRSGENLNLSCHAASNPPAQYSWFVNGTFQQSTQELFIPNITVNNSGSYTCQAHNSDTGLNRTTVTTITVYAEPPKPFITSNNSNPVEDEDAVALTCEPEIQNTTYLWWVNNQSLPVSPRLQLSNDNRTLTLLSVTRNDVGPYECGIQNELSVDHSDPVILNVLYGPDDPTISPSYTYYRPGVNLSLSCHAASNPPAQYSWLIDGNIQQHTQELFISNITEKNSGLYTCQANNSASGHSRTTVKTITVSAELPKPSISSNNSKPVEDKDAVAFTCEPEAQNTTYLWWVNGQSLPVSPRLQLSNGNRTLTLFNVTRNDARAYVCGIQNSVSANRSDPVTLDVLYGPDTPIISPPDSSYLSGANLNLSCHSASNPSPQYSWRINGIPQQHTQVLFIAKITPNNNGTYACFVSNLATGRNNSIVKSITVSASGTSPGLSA
# T2: CEACAM5 on the surface of the tumor cells (HPAFII cells) (UniProt P06731 35-685)
# T2 construct: whole, on cells
# T2 sequence (looked up): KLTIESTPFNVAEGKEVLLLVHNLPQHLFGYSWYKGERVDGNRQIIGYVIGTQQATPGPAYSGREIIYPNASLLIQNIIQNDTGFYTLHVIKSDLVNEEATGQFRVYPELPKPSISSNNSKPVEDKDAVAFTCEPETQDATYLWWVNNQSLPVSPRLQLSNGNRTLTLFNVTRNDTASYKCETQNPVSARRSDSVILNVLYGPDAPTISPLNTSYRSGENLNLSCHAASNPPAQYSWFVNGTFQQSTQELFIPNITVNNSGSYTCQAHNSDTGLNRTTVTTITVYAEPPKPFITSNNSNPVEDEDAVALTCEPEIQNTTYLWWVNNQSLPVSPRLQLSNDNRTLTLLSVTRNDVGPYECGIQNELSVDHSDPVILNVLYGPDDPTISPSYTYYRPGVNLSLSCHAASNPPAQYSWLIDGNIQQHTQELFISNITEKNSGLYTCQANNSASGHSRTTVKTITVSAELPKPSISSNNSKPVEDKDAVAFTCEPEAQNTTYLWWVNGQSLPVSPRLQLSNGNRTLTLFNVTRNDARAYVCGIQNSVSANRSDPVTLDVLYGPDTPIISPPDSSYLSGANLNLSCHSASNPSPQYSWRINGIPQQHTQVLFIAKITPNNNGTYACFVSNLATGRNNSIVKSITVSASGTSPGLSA
# T3: CEACAM6 on the surface of the tumor cells (HPAFII cells) (UniProt P40199 35-320)
# T3 construct: whole, on cells
# T3 sequence (looked up): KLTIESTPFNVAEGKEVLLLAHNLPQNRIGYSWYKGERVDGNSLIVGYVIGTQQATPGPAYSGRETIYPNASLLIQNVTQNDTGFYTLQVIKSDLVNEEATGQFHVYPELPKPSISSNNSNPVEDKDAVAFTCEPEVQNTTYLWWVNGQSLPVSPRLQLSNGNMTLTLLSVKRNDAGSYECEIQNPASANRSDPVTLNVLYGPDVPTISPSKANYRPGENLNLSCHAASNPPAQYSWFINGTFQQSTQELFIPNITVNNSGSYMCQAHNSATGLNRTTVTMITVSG
# T4: mouse CEACAM5 (mouse, UniProt Q3UKK2 35-947, limits assumed)
# T4 sequence (looked up): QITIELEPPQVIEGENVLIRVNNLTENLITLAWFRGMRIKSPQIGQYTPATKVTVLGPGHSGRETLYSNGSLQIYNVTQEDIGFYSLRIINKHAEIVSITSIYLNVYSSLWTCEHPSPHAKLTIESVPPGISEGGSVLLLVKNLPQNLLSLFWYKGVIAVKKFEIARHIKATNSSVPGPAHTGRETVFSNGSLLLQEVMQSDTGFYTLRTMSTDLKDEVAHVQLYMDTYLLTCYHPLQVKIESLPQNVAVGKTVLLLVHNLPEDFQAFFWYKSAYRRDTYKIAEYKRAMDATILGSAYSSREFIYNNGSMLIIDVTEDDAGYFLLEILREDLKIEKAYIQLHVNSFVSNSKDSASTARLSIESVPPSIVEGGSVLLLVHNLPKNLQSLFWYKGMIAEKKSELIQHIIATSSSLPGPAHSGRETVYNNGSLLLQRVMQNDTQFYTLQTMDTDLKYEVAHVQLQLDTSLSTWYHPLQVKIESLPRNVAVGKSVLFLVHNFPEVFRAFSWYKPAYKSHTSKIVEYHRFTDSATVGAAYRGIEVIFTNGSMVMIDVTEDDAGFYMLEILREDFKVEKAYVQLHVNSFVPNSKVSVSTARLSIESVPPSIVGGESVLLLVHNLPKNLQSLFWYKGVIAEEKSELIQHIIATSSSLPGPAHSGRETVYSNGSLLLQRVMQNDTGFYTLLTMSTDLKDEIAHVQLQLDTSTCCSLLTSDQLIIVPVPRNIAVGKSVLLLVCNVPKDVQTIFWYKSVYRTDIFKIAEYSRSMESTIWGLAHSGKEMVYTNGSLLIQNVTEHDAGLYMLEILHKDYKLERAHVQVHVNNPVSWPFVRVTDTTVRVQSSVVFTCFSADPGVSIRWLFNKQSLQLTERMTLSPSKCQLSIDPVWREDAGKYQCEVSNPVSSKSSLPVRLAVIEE
# Tests used:
# [1] = molecular target: T1, human CEACAM5-his (ACRO CE5-H5226); experiment: ELISA on coated human CEACAM5, OD450
# Experimental: (§1) The binding activity of the antibodies to human CEACAM5, human CEACAM6, and human CEACAM6 (AB) proteins was detected by ELISA. The plate coated with proteins was incubated at 4° C. overnight, and the 96-well ELISA plate blocked with 2% PBS-BSA was added with the antibody to be detected and incubated at 37° C. for 1 h. After washing 3 times with PBS containing 0.05% Tween, the absorbance value of each well was read at wavelength 450 nm with the gradient-diluted mouse-derived candidate antibody as the primary antibody and anti-mouse-IgG-FC-HRP as the secondary antibody, and the absorbance value of each well was read at wavelength 450 nm after the TMB color development.
# Human-CEACAM6 (AB)-His = molecular target: T5, Human-CEACAM6 (AB)-His (human, UniProt P40199 145-314); experiment: ELISA on coated human CEACAM6 (AB), OD450
# T5 construct: Made in house, purified on a nickel column
# T5 sequence (P40199 other isoform, or with tags, fused parts or gaps limits assumed): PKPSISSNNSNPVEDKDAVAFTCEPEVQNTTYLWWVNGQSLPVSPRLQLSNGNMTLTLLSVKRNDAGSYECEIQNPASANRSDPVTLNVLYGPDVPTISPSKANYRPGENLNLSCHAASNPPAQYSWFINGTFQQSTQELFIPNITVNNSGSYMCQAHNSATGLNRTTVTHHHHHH
# Experimental: as §1
# [2] = molecular target: T2, CEACAM5 on the surface of the tumor …; experiment: flow cytometry on HPAFII cells (Mean-FITC); the cells carry CEACAM5 and CEACAM6, signal not divided between the two
# Experimental: (§2) The antibody to be tested was taken as the initial concentration of 200 nM and diluted 5-fold with 6 gradients. The HPAFII cells (From USTC […] FOR ADVANCED STUDIES) in the incubator were taken out, and the cell suspension was transferred to a 15 mL centrifuge tube, centrifuged, and counted by resuspension in PBS. A blank control group (Blank), a negative control group (NC), an experimental group, a positive control group and the irrelevant antibody group were kept. […] The cell suspension was spread in a 96-well plate according to about 3×10⁵ cells/well. Centrifugation (1000 rpm, 5 min) was performed, followed by washing with PBS, re-centrifugation, and repeated twice to remove media residues. The supernatant was discarded, 100 μL of primary antibody solution and irrelevant antibody solution were added to the experimental group and irrelevant antibody group, respectively, and the cells were resuspended and incubated at room temperature for 1 h. The blank group, and the negative control group were incubated with an equal amount of PBS.
# (§3) After 1 h, PBS was added to wash twice. After the supernatant was discarded, 100 μL of fluorescent secondary antibody dilution (Mouse-derived secondary antibody from Abcam ab6785) was added to each sample group, except for the blank group which was added with 100 μL of PBS. After incubation at room temperature and protected from light for 0.5 h, centrifugation was performed and PBS added to wash the samples twice. After the supernatant was discarded, 120 μL of PBS was added to resuspend and sequentially flow cytometry was performed to detect the mean fluorescence intensity. The concentration of the antibody was logarithmically taken as the horizontal coordinate, and the Sigmoidaldose-response (VariableSlope) method (GraphPadPrism Software, GraphPadSoftware, San Diego, California) was chosen to perform a nonlinear regression to obtain the binding activity curves of the antibody on HPAFII cells.
# [3] = molecular target: T3, CEACAM6 on the surface of the tumor …; experiment: as above
# Experimental: as §2, §3
# [4] = molecular target: T3, CEACAM6 on the surface of the tumor …; experiment: flow cytometry on HPAFII cells (Mean PE); the cells carry CEACAM5 and CEACAM6, signal not divided between the two
# Experimental: Centrifugation (1000 rpm, 5 min) was performed, followed by washing with PBS, re-centrifugation, and repeated twice to remove media residues. The supernatant was discarded, 100 μL of primary antibody solution and irrelevant antibody solution were added to the experimental group and irrelevant antibody group, respectively, and the cells were resuspended and incubated at room temperature for 1 h. The blank group, and the negative control group were incubated with an equal amount of PBS.
# as §3, with “(Secondary” for “(Mouse-derived secondary”, “ab98596)” for “ab6785)”
# [5] = molecular target: T1, human CEACAM5-his (ACRO CE5-H5226); experiment: ELISA on coated human CEACAM5, OD450; remark: listed apart in the source
# Experimental: as §1
# mouse CEACAM5 = molecular target: T4, mouse CEACAM5; experiment: ELISA on coated protein, OD450
# Experimental: The affinity of the antibodies to monkey CEACAM5, monkey CEACAM6, and mouse CEACAM5 proteins was determined by ELISA. The plates encapsulated with […] proteins were incubated at 4° C. overnight, and the antibodies to be detected were added to 96-well ELISA plates after being blocked with 2% PBS-BSA and incubated at 37° C. for 1 h. After washing 3 times with PBS containing 0.05% Tween, the absorbance value of each well was read at wavelength 450 nm with the antibody to be detected as the primary antibody and Goat anti-mouse IgG-FC-HRP as the secondary antibody, and the absorbance value of each well was read at wavelength 450 nm after the TMB color development. The specific binding to CEACAM5 and CEACAM6 of mouse and monkey was detected by Elisa method.
binder,measurement,setting,value
"Antibody 5 (antibody, V domains shown, Mouse-derived hybridoma antibody; also called mouse-derived antibody 5) VH: QIQLVQSGPELMKPGETVKISCKASGYTFTNYGMNWVKQAPGKGLKWLGWINTYTGKPTYADDIKERFVFSLETSASTAYLQINNLKNEDTATYFCARRDYRGWYFDVWGAGTPVTVSS VL: not shown",binding result,[1],binds
same,EC50 (read off the curve),Human-CEACAM6 (AB)-His,~0.04 µg/mL
"Antibody 4 (antibody, V domains shown, Mouse-derived hybridoma antibody; also called mouse-derived antibody 4) VH: QIQLVQSGPELKKPGETVKISCKASGYTFTDYSLHWVKQVPVKGLKWMGWINTETGEPTYADDFKGRFAFSLDTSASSAYLQIHNLKNEDTATYFCASPVSLLFYYFTVWGAGTTVTVSA VL: DIQMTQTTSSLSASLGDRVTISCRASQDISHFLNWYQQKPDGTVELLIYYTSRLLSGVPSRFSGSGSGTDYSLTIANLEQEDIATYFCQQGKTLPWTFGGGTKVEIK",EC50 (read off the curve),[1],~0.02 µg/mL
same,EC50 (read off the curve),[2],~2 nM
same,EC50 (read off the curve),[3],~2 nM
"Antibody E (antibody, human IgG1, kappa, V domains shown, humanized from mouse-derived antibody 2; also called humanized antibody E) VH: EVQLVESGGGLVQPGGSLRLSCATSEFTLIDYYMSWVRQAPGKALEWVGYIRNKVNGHTTDYIASVKGRFTISRDDSKNSLYLQMNSLKTEDTAVYYCVRDPGINWYFDVWGQGTLVTVSS VL: EIVLTQSPATLSLSPGERATLSCRASSRVTYMHWYQQKPGQSPRPLISATSNLASGIPARFSGSGSGTDYTLTISSLEPEDFAVYYCQQWSYNPPTFGGGTKLELKR",binding result,[4],binds
"Antibody F (antibody, human IgG1, kappa, V domains shown, humanized from mouse-derived antibody 2; also called humanized antibody F) VH: EVQLVESGGGLVQPGGSLRLSCATSEFTLIDYYMSWVRQAPGKALEWVGYIRNKVNGHTTDYIASVKGRFTISRDDSKNSLYLQMNSLKTEDTAVYYCVRDPGINWYFDVWGQGTLVTVSS VL: QIVLTQSPATLSLSPGERATLSCRASSRVTYMHWYQQKPGSSPKPLISATSNLASGIPARFSGSGSGTDYTLTISSLEPEDFATYYCQQWSYNPPTFGGGTKLELKR",binding result,[4],binds
"Antibody 12 (antibody, V domains shown, Mouse-derived hybridoma antibody; also called mouse-derived antibody 12) VH: EVKLVESGGGLVQPGGSLSLSCAVSGFIFTDYFMSWVRQPPGKTLEWLALIRNKANGYIIEYSESVKGRFTISRGNSQSIFYLQMNALRTEDSATYYCARDIGIRWNFDVWGAGTTVTVSS VL: QIVLTQSPAIMSASPGEKVTMTCSATSRVTYMHWYQQKSGTSPKRWIYATSTLASGVPARFSGSGSGTSYSLTISSMEAEDAATYYCQQWSYNPPTFGSGTKLEIK",EC50 (read off the curve),[5],~0.02 µg/mL
same,EC50 (read off the curve),Human-CEACAM6 (AB)-His,~0.009 µg/mL
"Antibody 3 (antibody, V domains shown, Mouse-derived hybridoma antibody; also called mouse-derived antibody 3) VH: EVQMVESGGGLVKPGGSLKLSCAASGFTFSDYYMYWVRQSPEKRLEWVATISDAGTYTSYLDSVKGRFIISRDNAKNNLYLQMSSLKSEDTAIYYCARNYYGSSPYGMDYWGQGTSVTVSS VL: QIVLTQSPAIMSASPGEKVTMTCSASSSVIYMHWYQQKSGTSPKRWIYDTSKLASGVPARFSGSGSGTSYSLTISSMEAEDAATYYCQQWSSHPLTFGAGTKLELK",EC50 (read off the curve),[1],~0.02 µg/mL
same,EC50 (read off the curve),[2],~1 nM
same,EC50 (read off the curve),[3],~1 nM
"Antibody 2 (antibody, V domains shown, Mouse-derived hybridoma antibody; also called mouse-derived antibody 2) VH: EVKLVESGGGLVQPGGSLRLSCATSEFTLIDYYMSWVRQSPGKALEWLGYIRNKVNGHTTDYIASVKGRFAISRDNSQSILYLQMNTLRVEDSATYYCVRDPGINWYFDVWGAGTTVTVSS VL: QIVLSQSPAILSASPGEKVTMTCRASSRVTYMHWYQQKPGSSPKPWISATSNLASGVPARFSGSGSGTSYSLTISRVEAEDAATYYCQQWSYNPPTFGAGTKLELN",OD,mouse CEACAM5,0.15 OD
same,EC50 (read off the curve),[1],~0.02 µg/mL
same,EC50 (read off the curve),[2],~3 nM
same,EC50 (read off the curve),[3],~3 nM
